Source: IntAct's records for PubMed 25281559

B1: Casein kinase I homolog HRR25 (Saccharomyces cerevisiae), P29295 (parent)
chain: MDLRVGRKFRIGRKIGSGSFGDIYHGTNLISGEEVAIKLESIRSRHPQLDYESRVYRYLSGGVGIPFIRWFGREGEYNAMVIDLLGPSLEDLFNYCHRRFSFKTVIMLALQMFCRIQYIHGRSFIHRDIKPDNFLMGVGRRGSTVHVIDFGLSKKYRDFNTHRHIPYRENKSLTGTARYASVNTHLGIEQSRRDDLESLGYVLIYFCKGSLPWQGLKATTKKQKYDRIMEKKLNVSVETLCSGLPLEFQEYMAYCKNLKFDEKPDYLFLARLFKDLSIKLEYHNDHLFDWTMLRYTKAMVEKQRDLLIEKGDLNANSNAASASNSTDNKSETFNKIKLLAMKKFPTHFHYYKNEDKHNPSPEEIKQQTILNNNAASSLPEELLNALDKGMENLRQQQPQQQVQSSQPQPQPQQLQQQPNGQRPNYYPEPLLQQQQRDSQEQQQQVPMATTRATQYPPQINSNNFNTNQASVPPQMRSNPQQPPQDKPAGQSIWL
partner: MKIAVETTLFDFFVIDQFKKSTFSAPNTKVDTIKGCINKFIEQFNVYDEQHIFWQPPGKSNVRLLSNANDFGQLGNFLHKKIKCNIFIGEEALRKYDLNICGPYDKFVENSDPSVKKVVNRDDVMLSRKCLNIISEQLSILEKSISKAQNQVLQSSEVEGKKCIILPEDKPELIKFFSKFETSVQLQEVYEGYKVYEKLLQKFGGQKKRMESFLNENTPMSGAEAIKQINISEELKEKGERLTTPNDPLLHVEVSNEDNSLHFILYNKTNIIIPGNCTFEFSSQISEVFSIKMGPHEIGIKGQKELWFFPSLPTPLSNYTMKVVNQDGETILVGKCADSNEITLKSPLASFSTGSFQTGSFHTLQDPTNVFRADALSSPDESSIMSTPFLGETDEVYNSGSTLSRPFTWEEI

Variants of: B1
Settings: with atg34_yeast ATG34, Q12292

Row | Variant | effect of a mutation on the interaction
1 | MDLRVGRKFRIGRKIGSGSFGDIYHGTNLISGEEVAIALESIRSRHPQLDYESRVYRYLSGGVGIPFIRWFGREGEYNAMVIDLLGPSLEDLFNYCHRRFSFKTVIMLALQMFCRIQYIHGRSFIHRDIKPDNFLMGVGRRGSTVHVIDFGLSKKYRDFNTHRHIPYRENKSLTGTARYASVNTHLGIEQSRRDDLESLGYVLIYFCKGSLPWQGLKATTKKQKYDRIMEKKLNVSVETLCSGLPLEFQEYMAYCKNLKFDEKPDYLFLARLFKDLSIKLEYHNDHLFDWTMLRYTKAMVEKQRDLLIEKGDLNANSNAASASNSTDNKSETFNKIKLLAMKKFPTHFHYYKNEDKHNPSPEEIKQQTILNNNAASSLPEELLNALDKGMENLRQQQPQQQVQSSQPQPQPQQLQQQPNGQRPNYYPEPLLQQQQRDSQEQQQQVPMATTRATQYPPQINSNNFNTNQASVPPQMRSNPQQPPQDKPAGQSIWL [K38A] | disrupting interaction
